In the supplement of paper PMC10567573:

B1: PBXIP1 (parent)
chain: LQQLRARLQGLEADCVRGPDGVCL

Variants of: B1
Assay: protein stability index of a GFP-peptide fusion (GPS, HEK-293T) (PSI 1-6); higher = more stable
Conditions: c terminus: a fixed tail appended
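Further: lentivirally expressed fusions sorted by FACS into six bins by GFP to DsRed ratio, PSI derived from sequencing read proportions per bin multiplied by bin number.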

Protein stability index, by site and new letter:
R17: K 1.86, W 1.81, I 1.82, V 2.2, G 2.55, E 1.86
C23: H 2.66, N 1.65, W 3.01, A 2.2, P 2.52, V 1.74, M 2.23, I 2.78, Q 2.39, Y 2.29, S 1.96, L 2.48
P19: R 1.41, H 2.62, D 2.23, T 2.12, V 2.65, K 1.98, I 2.58, N 1, W 1.5
R7: P 2.59, T 2.52, H 2.91, K 2.28, A 2.12, E 4.03, N 2.93, W 2.28
L4: V 1.81, P 2.42, E 3.75, C 1.96, M 2.03, R 3.19
G10: D 2.35, M 2.02, E 2.64, Q 2.53
Q9: W 1.86, R 1.17, A 1.43, E 1.6, T 1.04
G18: K 2.27, I 1.87, H 2.39, A 2.97, M 2.32
L11: M 2.75, S 3.09, R 2.88, P 2.07, A 2.46, E 3.75, I 1.93, N 3.09, H 2.41, G 4.24
G21: S 3.94, Y 1.28, W 2.07, I 1.75, K 3.18, A 1.28
Q3: G 2.66, P 3.53, M 3.04, N 2.36
V16: Q 2.95, E 3.21, M 1.81, L 1.59, F 2.28, I 2.38, W 1.46
C15: N 1.95, A 2.6, Q 1.99, T 2.18, L 2.5, H 1.81, G 1.96, K 2.29
Q2: R 1.82, M 1.74, I 1.3, F 3.06, Y 1.24, S 2.63, N 3.27, L 1.41
A13: I 1.34, M 2.79, H 1.68, N 2.56, L 1.45, E 2.97, C 2.08, Y 2.01, V 2.35
D20: V 1.8, P 1.5, E 1.89, Q 3.03, W 1.84, A 2.03, R 2.54, K 2.08, T 2.12
R5: H 2.61, M 1.84, E 3.78, C 1.24, F 2.14, S 2.76, D 4.08, T 3.04
A6: F 1.95, S 3.27, N 2.19, M 1.36, H 2.47, T 3.11, G 2.84, P 3.61
L24: D 3.08, Y 2.34, W 2.15, I 1.94, P 2.79, H 2.97, V 1.79
V22: M 2.13, A 2.03, G 1.78, R 3.41, F 1.34, I 1.96, Y 1.52, Q 2.83, S 3.23
D14: R 2.93, M 3.39, E 2.24, N 1.75
E12: D 2.23, V 2.79
L1: P 4.19, I 1.72, V 2.52, R 3.76, T 3.66, H 3.85, Y 2.22
L8: D 3.58, W 2.24, I 2.84, E 5.35, M 2.05, Q 3.36
